US20130123471A1

Key:
[1] = target: anti-CEA humanized chimeric antibody; assay: direct ELISA: chimeric antibody (100 ng/ml) on coated CEA, detected with goat-anti-mouse IgG Fc-HRP (background level)
[2] = target: human CEA antigen (human) (UniProt P06731); assay: ELISA, CEA coating, sample 100 ng/ml, goat-anti-human IgG Fc-HRP (background level)
[3] = target: human CEA antigen (human) (UniProt P06731); assay: direct ELISA on coated CEA, 100 ng/ml, goat-anti-mouse IgG Fc-HRP secondary (background level; this secondary does not detect human Ig)
[4] = target: human CEA antigen (human) (UniProt P06731); assay: competitive inhibition ELISA on coated CEA, 80 ng human IgG1 against 2.5 ng parent mouse antibody
[5] = target: human CEA antigen (human) (UniProt P06731); assay: direct ELISA on coated CEA, 100 ng/ml, goat-anti-human IgG Fc-HRP secondary (background level)

Chain of UniProt P06731 (P06731 35-685 limits assumed): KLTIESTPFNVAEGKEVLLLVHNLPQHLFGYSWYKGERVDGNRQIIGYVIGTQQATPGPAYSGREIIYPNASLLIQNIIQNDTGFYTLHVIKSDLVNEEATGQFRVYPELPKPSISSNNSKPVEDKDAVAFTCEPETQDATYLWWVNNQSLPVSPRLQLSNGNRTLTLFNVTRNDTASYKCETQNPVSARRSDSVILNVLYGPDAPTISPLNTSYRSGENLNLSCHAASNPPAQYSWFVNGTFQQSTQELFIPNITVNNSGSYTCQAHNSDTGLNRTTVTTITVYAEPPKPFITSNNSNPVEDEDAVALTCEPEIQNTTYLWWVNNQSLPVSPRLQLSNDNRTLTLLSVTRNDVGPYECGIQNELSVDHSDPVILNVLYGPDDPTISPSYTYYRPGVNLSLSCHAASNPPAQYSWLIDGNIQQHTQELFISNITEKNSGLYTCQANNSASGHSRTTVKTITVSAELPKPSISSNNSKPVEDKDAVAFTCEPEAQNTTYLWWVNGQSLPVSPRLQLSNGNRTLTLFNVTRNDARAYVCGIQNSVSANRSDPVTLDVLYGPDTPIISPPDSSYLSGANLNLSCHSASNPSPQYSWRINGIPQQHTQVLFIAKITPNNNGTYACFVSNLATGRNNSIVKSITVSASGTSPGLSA
Chain of anti-CEA humanized chimeric antibody (VH, as listed by the source, chain 1 of 2): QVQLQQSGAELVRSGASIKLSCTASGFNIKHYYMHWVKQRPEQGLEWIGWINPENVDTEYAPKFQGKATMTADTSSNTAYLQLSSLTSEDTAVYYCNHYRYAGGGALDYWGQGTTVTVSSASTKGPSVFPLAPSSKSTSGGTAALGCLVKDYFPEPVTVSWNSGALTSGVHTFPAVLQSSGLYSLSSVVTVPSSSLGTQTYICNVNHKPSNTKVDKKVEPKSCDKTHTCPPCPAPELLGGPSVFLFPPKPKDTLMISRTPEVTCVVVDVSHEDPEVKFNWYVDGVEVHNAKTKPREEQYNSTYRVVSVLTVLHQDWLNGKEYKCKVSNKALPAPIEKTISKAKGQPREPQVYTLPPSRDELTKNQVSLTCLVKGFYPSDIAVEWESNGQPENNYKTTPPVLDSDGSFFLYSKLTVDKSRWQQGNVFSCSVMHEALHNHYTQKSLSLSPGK
Chain of anti-CEA humanized chimeric antibody (VL, as listed by the source, chain 2 of 2): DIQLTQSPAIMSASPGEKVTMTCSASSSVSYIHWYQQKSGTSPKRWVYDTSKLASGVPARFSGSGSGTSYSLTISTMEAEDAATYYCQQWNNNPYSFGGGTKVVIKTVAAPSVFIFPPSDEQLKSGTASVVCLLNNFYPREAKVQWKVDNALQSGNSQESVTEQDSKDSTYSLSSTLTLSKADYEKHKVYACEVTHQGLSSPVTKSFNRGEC

OD490 [1] [OD490] | OD490 [2] [OD490] | OD490 [3] [OD490] | Inhibition rate (%) [4] [%] | OD490 [5] [OD490] | Substance
0.072 |  |  |  |  | goat-anti-mouse IgG Fc fragment-HRP (antibody)
 | 0.072 | 0.077 | -12.8 | 0.079 | irrelevant antibody human IgG1
